The results in this text go back to US20250262210A1 (TRUSTEES OF COLUMBIA UNIVERSITY IN THE CITY OF NEW YORK, published 2025).

The target of one assay is T1, ATAD2 (human, UniProt Q6PL18 1-1390, limits assumed).
T1 sequence (looked up): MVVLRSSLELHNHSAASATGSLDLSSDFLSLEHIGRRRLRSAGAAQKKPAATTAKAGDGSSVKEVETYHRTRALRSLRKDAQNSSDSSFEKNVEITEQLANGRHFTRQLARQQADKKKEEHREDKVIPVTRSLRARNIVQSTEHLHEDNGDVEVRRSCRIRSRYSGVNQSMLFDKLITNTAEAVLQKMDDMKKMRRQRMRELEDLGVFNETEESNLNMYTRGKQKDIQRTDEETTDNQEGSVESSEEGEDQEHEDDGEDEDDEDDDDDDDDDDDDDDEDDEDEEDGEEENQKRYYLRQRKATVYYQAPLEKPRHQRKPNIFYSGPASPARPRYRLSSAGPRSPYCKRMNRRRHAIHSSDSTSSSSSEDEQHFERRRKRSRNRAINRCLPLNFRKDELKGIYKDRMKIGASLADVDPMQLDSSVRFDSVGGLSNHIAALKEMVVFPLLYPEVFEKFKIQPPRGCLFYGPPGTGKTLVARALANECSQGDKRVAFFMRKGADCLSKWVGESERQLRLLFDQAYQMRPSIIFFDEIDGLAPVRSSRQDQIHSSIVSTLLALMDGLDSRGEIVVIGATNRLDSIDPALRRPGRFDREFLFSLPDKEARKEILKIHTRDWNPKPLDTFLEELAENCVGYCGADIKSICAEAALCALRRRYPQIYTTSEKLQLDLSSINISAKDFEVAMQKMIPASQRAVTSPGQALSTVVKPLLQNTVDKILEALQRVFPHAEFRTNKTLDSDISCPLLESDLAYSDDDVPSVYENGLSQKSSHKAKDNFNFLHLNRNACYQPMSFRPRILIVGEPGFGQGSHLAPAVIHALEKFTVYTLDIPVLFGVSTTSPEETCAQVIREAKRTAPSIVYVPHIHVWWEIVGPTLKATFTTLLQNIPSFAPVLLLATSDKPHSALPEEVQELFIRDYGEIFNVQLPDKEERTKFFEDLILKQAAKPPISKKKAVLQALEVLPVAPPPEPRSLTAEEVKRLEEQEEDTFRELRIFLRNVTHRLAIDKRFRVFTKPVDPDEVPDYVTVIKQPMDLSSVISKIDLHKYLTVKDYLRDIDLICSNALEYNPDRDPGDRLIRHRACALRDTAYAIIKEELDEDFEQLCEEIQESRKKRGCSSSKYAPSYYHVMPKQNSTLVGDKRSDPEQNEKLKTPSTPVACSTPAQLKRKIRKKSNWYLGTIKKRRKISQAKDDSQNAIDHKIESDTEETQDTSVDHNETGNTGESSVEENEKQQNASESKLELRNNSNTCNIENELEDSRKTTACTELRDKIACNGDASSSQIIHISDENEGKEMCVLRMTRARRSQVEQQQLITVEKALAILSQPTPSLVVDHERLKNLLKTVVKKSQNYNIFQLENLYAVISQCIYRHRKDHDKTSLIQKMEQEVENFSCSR
Briefly: IP/MS, LZTR1 wild type-FLAG, U87. The method, boiled down:
(§1)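 Gel slices were reduced with 5 mM DTT, alkylated with 11 mM IAA and digested overnight at 37° C. with trypsin. Peptides were analysed on an Orbitrap Fusion Tribrid by LC-MS/MS.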

In another assay the target is DIP2B (human, UniProt Q9P265 1-1576). Briefly: IP/MS, LZTR1 wild type-FLAG, U87. In outline: as §1
Sequence of DIP2B (Q9P265 whole entry): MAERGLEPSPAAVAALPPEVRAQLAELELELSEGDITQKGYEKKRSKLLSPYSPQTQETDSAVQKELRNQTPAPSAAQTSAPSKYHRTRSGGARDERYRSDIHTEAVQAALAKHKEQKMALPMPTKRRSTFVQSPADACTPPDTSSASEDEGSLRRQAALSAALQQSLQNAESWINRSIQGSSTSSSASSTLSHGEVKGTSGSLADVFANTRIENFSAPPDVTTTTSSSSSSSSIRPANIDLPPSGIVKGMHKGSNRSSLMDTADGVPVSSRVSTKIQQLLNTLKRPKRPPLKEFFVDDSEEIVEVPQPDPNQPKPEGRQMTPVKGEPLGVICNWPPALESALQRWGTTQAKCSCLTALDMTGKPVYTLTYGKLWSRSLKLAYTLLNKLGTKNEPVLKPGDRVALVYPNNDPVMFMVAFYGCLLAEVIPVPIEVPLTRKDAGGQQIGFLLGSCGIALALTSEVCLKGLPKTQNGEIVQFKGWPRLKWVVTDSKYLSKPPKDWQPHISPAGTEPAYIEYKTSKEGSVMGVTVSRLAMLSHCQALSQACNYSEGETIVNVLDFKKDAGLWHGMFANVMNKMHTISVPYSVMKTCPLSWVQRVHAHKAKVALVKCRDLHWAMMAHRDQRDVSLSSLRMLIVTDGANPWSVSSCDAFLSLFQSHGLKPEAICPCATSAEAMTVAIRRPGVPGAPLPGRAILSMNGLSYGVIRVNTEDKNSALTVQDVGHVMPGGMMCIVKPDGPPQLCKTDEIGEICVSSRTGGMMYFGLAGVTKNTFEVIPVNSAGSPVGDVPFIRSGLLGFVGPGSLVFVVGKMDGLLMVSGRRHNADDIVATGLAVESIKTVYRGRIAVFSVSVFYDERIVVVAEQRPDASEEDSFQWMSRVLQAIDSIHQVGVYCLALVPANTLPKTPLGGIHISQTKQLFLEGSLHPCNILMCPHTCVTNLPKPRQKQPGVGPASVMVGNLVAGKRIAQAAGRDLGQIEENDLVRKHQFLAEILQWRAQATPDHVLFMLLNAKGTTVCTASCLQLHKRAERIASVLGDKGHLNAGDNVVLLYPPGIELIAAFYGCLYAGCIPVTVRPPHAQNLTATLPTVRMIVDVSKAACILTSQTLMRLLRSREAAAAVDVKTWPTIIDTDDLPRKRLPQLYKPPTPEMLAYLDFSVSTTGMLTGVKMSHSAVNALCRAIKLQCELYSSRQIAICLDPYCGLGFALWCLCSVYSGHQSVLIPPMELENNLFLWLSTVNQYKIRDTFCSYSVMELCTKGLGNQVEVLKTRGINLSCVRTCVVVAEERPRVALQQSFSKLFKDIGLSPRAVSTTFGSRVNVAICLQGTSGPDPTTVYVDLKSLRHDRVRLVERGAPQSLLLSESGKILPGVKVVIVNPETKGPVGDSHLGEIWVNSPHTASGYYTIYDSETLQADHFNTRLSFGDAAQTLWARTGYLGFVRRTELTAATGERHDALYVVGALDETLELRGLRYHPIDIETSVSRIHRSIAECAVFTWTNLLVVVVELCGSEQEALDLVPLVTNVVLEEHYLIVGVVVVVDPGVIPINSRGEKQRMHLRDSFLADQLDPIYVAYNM

B1: LZTR1-FLAG (other, human, UniProt Q8N653 1-840, looked up)
chain: MAGPGSTGGQIGAAALAGGARSKVAPSVDFDHSCSDSVEYLTLNFGPFETVHRWRRLPPCDEFVGARRSKHTVVAYKDAIYVFGGDNGKTMLNDLLRFDVKDCSWCRAFTTGTPPAPRYHHSAVVYGSSMFVFGGYTGDIYSNSNLKNKNDLFEYKFATGQWTEWKIEGRLPVARSAHGATVYSDKLWIFAGYDGNARLNDMWTIGLQDRELTCWEEVAQSGEIPPSCCNFPVAVCRDKMFVFSGQSGAKITNNLFQFEFKDKTWTRIPTEHLLRGSPPPPQRRYGHTMVAFDRHLYVFGGAADNTLPNELHCYDVDFQTWEVVQPSSDSEVGGAEVPERACASEEVPTLTYEERVGFKKSRDVFGLDFGTTSAKQPTQPASELPSGRLFHAAAVISDAMYIFGGTVDNNIRSGEMYRFQFSCYPKCTLHEDYGRLWESRQFCDVEFVLGEKEECVQGHVAIVTARSRWLRRKITQARERLAQKLEQEAAPVPREAPGVAAGGARPPLLHVAIREAEARPFEVLMQFLYTDKIKYPRKGHVEDVLLIMDVYKLALSFQLCRLEQLCRQYIEASVDLQNVLVVCESAARLQLSQLKEHCLNFVVKESHFNQVIMMKEFERLSSPLIVEIVRRKQQPPPRTPLDQPVDIGTSLIQDMKAYLEGAGAEFCDITLLLDGHPRPAHKAILAARSSYFEAMFRSFMPEDGQVNISIGEMVPSRQAFESMLRYIYYGEVNMPPEDSLYLFAAPYYYGFYNNRLQAYCKQNLEMNVTVQNVLQILEAADKTQALDMKRHCLHIIVHQFTKVSKLPTLRSLSQQLLLDIIDSLASHISDKQCAELGADI
notes: Expressed in HEK 293T, HeLa or U87 cells; used as cell lysate; also called LZTR1 wild type-FLAG; LZTR1 WT; not shown: FLAG tag at the C-terminus
For B1, the binding result with ATAD2 and with DIP2B was “binds” throughout.
